According to patent US20230158179A1 (RAYZEBIO, published 2023):
Bridge positions count the residues as written; N and C are the ends. Square brackets hold non-standard residues; d marks the D form. Phe(3-Ph) = N[C@@H](Cc1cccc(-c2ccccc2)c1)C(=O)O; Bip = N[C@@H](Cc1ccc(-c2ccccc2)cc1)C(=O)O; Phe(3-Cl) = N[C@@H](Cc1cccc(Cl)c1)C(=O)O; NMeY = CN[C@@H](Cc1ccc(O)cc1)C(=O)O; NMeF = CN[C@@H](Cc1ccccc1)C(=O)O; Cba = N[C@@H](CC1CCC1)C(=O)O; Chg = N[C@H](C(=O)O)C1CCCCC1

T1: Trop-2 on Trop-2 expressing cells (A431) (UniProt P09758 27-323, limits assumed)
T1 construct: whole, on cells; also called tumor-associated calcium signal transducer 2
T1 sequence (looked up): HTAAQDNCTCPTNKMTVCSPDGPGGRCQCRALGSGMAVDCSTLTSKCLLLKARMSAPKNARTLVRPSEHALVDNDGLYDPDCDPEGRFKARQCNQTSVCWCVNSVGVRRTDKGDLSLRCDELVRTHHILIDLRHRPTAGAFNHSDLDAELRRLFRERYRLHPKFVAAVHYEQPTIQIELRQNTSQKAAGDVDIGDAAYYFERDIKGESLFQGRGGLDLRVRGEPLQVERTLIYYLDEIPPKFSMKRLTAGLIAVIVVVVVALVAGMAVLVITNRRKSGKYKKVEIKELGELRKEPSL


How the values were obtained:
[1] = target: T2, FOLR1 on FOLR1 expressing cells (IGROV1) (UniProt P15328 25-234, limits assumed); experiment: flow cytometry on IGROV1 cells in human plasma/PBS, detection with SA-647; grade legend paragraph 454: 0 nM < A <= 100 nM
T2 construct: whole, on cells; also called folate receptor 1
T2 sequence (P15328 25-234 limits assumed): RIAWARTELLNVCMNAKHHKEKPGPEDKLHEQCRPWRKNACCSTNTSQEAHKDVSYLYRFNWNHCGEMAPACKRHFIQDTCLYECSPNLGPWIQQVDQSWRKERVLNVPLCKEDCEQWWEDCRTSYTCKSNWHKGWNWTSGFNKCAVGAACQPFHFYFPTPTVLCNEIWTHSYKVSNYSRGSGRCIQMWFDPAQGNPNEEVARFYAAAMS

Human Serum Albumin = target: T3, Human Serum Albumin (human, UniProt P02768 25-609); experiment: HSA-HPLC, immobilised HSA column, estimated from retention time; grade legend paragraph 440: 90% < A <= 100%
T3 construct: Immobilised on the HPLC column; also called HSA
Source text: HSA-HPLC method (measurement of drug protein binding by immobilized human serum albumin-HPLC). A 13-minute HPLC (Thermo Vanquish Horizon with Diode Array Detector) gradient method was used to determine the HSA (Human Serum Albumin) binding of novel compounds using a chemically bonded protein stationary phase (ChiralPAK HSA HPLC column, 50×4 mm). The HSA binding values were derived from the gradient retention times that were converted to the logarithm of the equilibrium constant using data from a calibration set of molecules. The % bound to plasma values for the calibrator compounds were converted to the linear free energy values using the following equation: LogK=log[% PPB/(101−% PPB)]. The logarithmic value of the gradient retention times from the experiment were plotted against the linearized values of the percent bound to plasma. The slope and the intercept were used to convert the retention times to linear free energy values (LogK), from which the estimated % protein binding was calculated using the following equation: % Binding=[(101·10^LogK)/(1+10^LogK)]. Aqueous mobile phase (A) was 50 mM ammonium acetate solution, ph7.4 and the organic mobile phase (B) was 2-propanol. The flow rate was set at 0.350mL/min and injection volume was 5 uL, with samples prepared at 0.5 mg/mL concentration in 50:50 mobile phase. The initial LC conditions were conducted at room temperature, set at 0% B and ramped to 50% B over 8.5 minutes, then held at 50% B for 1.5 minutes before going back to initial conditions and re-equilibrating the column for 2.5 minutes. Chromatograms were recorded at 280 nm by a diode array UV absorption detector.

[2] = target: T4, FOLR1-Fc-Avi (AcroBiosystems, F01-H82F9) (UniProt P15328 25-234, biotinylated (immobilised by streptavidin-biotin chemistry)); experiment: SPR, Biacore 8K, FOLR1-Fc-Avi immobilised, single cycle kinetics, 1:1 model; grade legend paragraph 444: 0 nM < A <= 10 nM
T4 construct: Bought reagent; also called folate receptor 1
T4 sequence (P15328 25-234 limits assumed): as above
Experimental: For analysis of peptide binding, a Biacore 8K instrument was used utilizing either a SA chip or a CAP chip. FOLR1-Fc-Avi (AcroBiosystems, F01-H₈₂F9) was immobilized on the chip using streptavidin-biotin chemistry at 25° C. in PBS-P+ buffer (20 mM phosphate, 2.7 mM KCl, 137 mM NaCl, 0.05% Tween-20, pH 7.4) to a level of 500-2500 RU (dependent on the analyte molecular weight). A dilution series of peptides was prepared in this buffer with a final DMSO concentration of 1% with a top peptide concentration at 50 or 100 nM and 8 further 2-fold dilutions. The SPR analysis was run at 25° C. at a flow rate of 100 μL/min in PBS-P+ with 1% DMSO running buffer and with a 120 second association and 10,000 second dissociation using single cycle kinetics methodology. All data was analyzed using Biacore Insight Evaluation Software version 3.) Data was fitted using a Langmuir 1:1 binding model.

[3] = target: T1, Trop-2 on Trop-2 expressing cells (A431); experiment: flow cytometry on A431 cells, procedure of the PSMA cell assay; grade legend paragraph 462: 0 nM < A <= 100 nM
[4] = target: T5, His-Avi-PSMA (AcroBiosystems, PSA-H82Qb) (UniProt Q04609 44-750, biotinylated (immobilised by streptavidin-biotin chemistry)); experiment: SPR, Biacore 8K, His-Avi-PSMA immobilised, single cycle kinetics, 1:1 model; grade legend paragraph 447: 0 nM < A <= 10 nM
T5 construct: Bought reagent; also called prostate-specific membrane antigen
T5 sequence (Q04609 44-750 limits assumed): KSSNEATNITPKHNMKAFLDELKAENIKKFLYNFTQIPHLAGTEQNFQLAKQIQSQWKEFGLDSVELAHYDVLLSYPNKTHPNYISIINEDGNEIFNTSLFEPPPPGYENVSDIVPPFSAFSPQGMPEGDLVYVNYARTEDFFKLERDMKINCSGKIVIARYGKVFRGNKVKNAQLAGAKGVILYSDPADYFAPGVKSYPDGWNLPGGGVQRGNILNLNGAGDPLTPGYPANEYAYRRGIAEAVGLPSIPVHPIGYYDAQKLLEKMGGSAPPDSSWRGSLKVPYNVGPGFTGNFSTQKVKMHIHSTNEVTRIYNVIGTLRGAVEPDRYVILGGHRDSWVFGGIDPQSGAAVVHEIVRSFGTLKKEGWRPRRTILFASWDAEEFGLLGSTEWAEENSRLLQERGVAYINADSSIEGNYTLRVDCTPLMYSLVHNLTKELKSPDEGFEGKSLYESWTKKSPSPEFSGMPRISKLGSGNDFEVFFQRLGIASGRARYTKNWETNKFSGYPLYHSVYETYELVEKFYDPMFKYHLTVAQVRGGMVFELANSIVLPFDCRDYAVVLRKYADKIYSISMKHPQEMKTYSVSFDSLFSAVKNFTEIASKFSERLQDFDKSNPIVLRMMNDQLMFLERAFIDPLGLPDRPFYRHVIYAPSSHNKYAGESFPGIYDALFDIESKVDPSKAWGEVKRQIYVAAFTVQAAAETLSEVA
Experimental: For analysis of peptide binding, a Biacore 8K instrument was used utilizing a SA chip. His-Avi-PSMA (AcroBiosystems, PSA-H82Qb) was immobilized on the chip using streptavidin-biotin chemistry at 25° C. in HBS-P+ buffer (10 mM HEPES, 150 mM NaCl, 0.05% Tween-20, pH 7.4) to a level of 800-2200 RU (dependent on the analyte molecular weight). A dilution series of peptides was prepared in this buffer with a final DMSO concentration of 1% with a top peptide concentration between 10-100 nM and 8 further 2-fold dilutions. The SPR analysis was run at 25° C. at a flow rate of 100 μL/min in HBS-P+ with 1% DMSO running buffer and with a 120 second association and 10,000 second dissociation using single cycle kinetics methodology. All data was analyzed using Biacore Insight Evaluation Software version 3. Data was fitted using a Langmuir 1:1 binding model.

[5] = target: T6, PSMA on PSMA expressing cells (LnCap) (UniProt Q04609 1-750, limits assumed); experiment: flow cytometry on LnCap cells, biotinylated compound, detection with SA-A647; grade legend paragraph 460: 0 nM < A <= 100 nM
T6 construct: whole, on cells; also called prostate-specific membrane antigen
T6 sequence (Q04609 whole entry): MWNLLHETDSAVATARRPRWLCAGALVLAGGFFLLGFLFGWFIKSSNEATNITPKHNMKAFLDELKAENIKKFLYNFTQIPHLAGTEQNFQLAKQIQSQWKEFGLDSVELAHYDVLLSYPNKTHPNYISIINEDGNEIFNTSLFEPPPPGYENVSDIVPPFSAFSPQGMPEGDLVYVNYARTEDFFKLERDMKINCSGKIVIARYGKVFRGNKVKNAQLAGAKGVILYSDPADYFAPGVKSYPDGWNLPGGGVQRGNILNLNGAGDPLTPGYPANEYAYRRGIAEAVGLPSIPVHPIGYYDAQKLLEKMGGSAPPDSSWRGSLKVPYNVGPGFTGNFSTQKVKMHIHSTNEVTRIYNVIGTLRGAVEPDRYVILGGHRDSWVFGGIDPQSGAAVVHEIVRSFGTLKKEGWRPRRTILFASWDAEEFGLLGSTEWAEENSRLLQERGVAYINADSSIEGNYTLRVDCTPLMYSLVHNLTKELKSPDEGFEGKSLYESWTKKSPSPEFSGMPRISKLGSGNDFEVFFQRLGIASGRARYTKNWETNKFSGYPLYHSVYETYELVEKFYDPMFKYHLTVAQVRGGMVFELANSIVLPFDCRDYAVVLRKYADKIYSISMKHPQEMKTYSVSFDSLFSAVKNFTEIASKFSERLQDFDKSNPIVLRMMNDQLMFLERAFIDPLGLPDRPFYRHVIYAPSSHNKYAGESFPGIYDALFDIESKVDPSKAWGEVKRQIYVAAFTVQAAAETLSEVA

| EC50 [1] | % Bound to HSA at r.t. (Human Serum Albumin) | Kd [2] | EC50 [3] | Kd [4] | EC50 [5] | Binder |
| --- | --- | --- | --- | --- | --- | --- |
| ≤ 100 nM | > 90% | ≤ 10 nM |  |  |  | DR[Chg][NMeF]D[Phe(3-Cl)]DT[NMeY][NMeY]WYC-NH2 (bridge N-13; not fully specified (N-terminus, bridges), The cell assay detects with SA-647, so a biotinylated form was used) [P-11] |
| ≤ 100 nM | > 90% | ≤ 10 nM |  |  |  | ARL[NMeF]DYDT[NMeY][NMeY]WYC-NH2 (bridge N-13; not fully specified (N-terminus, bridges), The cell assay detects with SA-647, so a biotinylated form was used) [P-10] |
|  | > 90% |  | ≤ 100 nM |  |  | [dA]D[Bip]IYPA[Bip]SSES[NMeF]C-NH2 (bridge N-14; not fully specified (N-terminus, bridges), The cell assay followed the procedure with biotinylated compounds) [P-40] |
|  | > 90% |  |  | ≤ 10 nM | ≤ 100 nM | W[Phe(3-Ph)]DVDSD[Cba]W[Phe(3-Ph)]DC-NH2 (bridge N-12; not fully specified (N-terminus, bridges)) [P-21] |
|  | > 90% | ≤ 10 nM |  |  |  | DR[Chg][NMeF]DYDT[NMeY][NMeY]WYC-NH2 (bridge N-13; not fully specified (N-terminus, bridges)) [P-12] |
